These results are taken from patent publication US12534531 (MacroGenics, dated 2026).

Experiment [1] has as its target T1, biotinylated-soluble human LAG-3-Fc fusion protein (human, UniProt P18627 23-450, biotinylated (site not stated)).
T1 construct: whole entry named; also called shLAG-3; shLAG-3-Fc; not shown: Fc
T1 sequence: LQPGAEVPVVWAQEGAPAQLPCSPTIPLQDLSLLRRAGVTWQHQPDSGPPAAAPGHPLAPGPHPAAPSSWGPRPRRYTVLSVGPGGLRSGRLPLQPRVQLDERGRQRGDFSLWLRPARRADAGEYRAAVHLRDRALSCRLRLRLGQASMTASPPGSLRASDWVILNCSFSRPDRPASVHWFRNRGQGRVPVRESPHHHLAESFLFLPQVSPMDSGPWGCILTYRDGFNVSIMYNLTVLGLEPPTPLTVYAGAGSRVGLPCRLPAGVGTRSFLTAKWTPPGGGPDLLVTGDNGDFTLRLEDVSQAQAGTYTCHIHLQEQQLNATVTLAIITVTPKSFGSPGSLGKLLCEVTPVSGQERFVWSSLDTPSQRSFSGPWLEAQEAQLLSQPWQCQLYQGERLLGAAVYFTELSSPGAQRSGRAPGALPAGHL
Nature of the experiment: FACS: inhibition of shLAG-3-Fc binding to MHC II on Daudi cells (column head prints EC50); SM; SD 1.1398.

For experiment [2], the target named is T2, human PD-1 expressed on the surface of cells (NSO cells expressing human PD-1; MNFAT-luc2/PD-1 Jurkat cells) (human, UniProt Q15116 21-288).
T2 construct: also called cell surface PD-1; PDCD1 transfected NSO cells expressing PD-1
Nature of the experiment: FACS: inhibition of sPD-L1 binding to PD-1 on NSO cells; SM; SD 0.1692. In general terms: Flow cytometry measures light scatter and fluorescence of single cells or particles in a stream.

Experiment [3] concerns the target T3, human LAG-3 expressed on NSO cells (human, UniProt P18627 29-525).
T3 sequence: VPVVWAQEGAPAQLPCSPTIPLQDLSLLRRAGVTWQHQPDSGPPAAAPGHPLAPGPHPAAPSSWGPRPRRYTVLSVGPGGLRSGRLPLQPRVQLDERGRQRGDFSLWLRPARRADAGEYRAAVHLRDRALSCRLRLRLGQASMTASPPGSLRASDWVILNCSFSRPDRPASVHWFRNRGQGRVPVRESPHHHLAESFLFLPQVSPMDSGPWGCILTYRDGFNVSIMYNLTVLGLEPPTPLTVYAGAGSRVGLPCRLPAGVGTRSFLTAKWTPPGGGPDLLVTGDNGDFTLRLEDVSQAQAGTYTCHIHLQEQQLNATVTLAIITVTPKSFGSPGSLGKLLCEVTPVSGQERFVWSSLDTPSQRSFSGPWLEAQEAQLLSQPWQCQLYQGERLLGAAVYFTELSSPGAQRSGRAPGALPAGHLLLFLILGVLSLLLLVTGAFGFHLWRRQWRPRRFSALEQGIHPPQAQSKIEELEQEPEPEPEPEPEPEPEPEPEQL
In words: FACS saturation binding to NSO cells expressing LAG-3; SM; SD 0.5326.

Experiment [4] concerns the target T2, human PD-1 expressed on the surface of …. Nature of the experiment: FACS saturation binding to NSO cells expressing PD-1; SM; SD 0.4140.
For experiment [5] the target is unchanged. Nature of the experiment: FACS: inhibition of sPD-L2 binding to PD-1 on NSO cells; SM; SD 0.5869.
Experiment [6] has as its target T3, human LAG-3 expressed on NSO cells. Nature of the experiment: FACS saturation binding to NSO cells expressing LAG-3; SM; SD 0.2231.
For experiment [7], the target named is T2, human PD-1 expressed on the surface of …. In words: FACS: inhibition of sPD-L2 binding to PD-1 on NSO cells; SM; SD 0.4285.
Experiment [8] concerns the target T1, biotinylated-soluble human LAG-3-Fc …. In words: FACS: inhibition of shLAG-3-Fc binding to MHC II on Daudi cells (column head prints EC50); SM; SD 1.6465.
Experiment [9] concerns the target T2, human PD-1 expressed on the surface of …. Nature of the experiment: FACS: inhibition of sPD-L1 binding to PD-1 on NSO cells; SM; SD 0.1485.
Experiment [10] shares this target. In words: FACS saturation binding to NSO cells expressing PD-1; SM; SD 0.4324.
For experiment [11] the target is unchanged. In words: FACS: inhibition of sPD-L1 binding to PD-1 on NSO cells; SM; SD 0.0007.
For experiment [12] the target is unchanged. In words: FACS: inhibition of sPD-L2 binding to PD-1 on NSO cells; SM; SD 0.3154.
The target in experiment [13] is T3, human LAG-3 expressed on NSO cells. Nature of the experiment: FACS saturation binding to NSO cells expressing LAG-3; single experiment.
Experiment [14] concerns the target T2, human PD-1 expressed on the surface of …. In words: FACS saturation binding to NSO cells expressing PD-1; single experiment.
The target of experiment [15] is T1, biotinylated-soluble human LAG-3-Fc …. In words: FACS: inhibition of shLAG-3-Fc binding to MHC II on Daudi cells (column head prints EC50); SM; SD 0.1104.

Substitutions are numbered along the chain they refer to.

T2 sequence (Q15116 21-288): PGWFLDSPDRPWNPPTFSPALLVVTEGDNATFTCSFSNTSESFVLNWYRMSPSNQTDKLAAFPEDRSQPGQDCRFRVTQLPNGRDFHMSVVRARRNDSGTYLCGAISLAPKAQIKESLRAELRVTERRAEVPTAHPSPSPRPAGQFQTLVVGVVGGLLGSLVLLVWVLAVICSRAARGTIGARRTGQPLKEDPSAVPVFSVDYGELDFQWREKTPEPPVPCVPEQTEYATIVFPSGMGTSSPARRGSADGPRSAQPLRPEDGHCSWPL

B1: DART D (bispecific antibody, human IgG4 S228P, kappa)
chain 1: EIVLTQSPATLSLSPGERATLSCRASESVDNYGMSFMNWFQQKPGQPPKLLIHAASNQGSGVPSRFSGSGSGTDFTLTISSLEPEDFAVYFCQQSKEVPYTFGGGTKVEIKGGGSGGGGQVQLVQSGAEVKKPGASVKVSCKASGYTFTNYGMNWVRQAPGQGLEWMGWINTYTGESTYADDFEGRFVFSMDTSASTAYLQISSLKAEDTAVYYCARESLYDYYSMDYWGQGTTVTVSSLGGGSGASTKGPSVFPLAPCSRSTSESTAALGCLVKDYFPEPVTVSWNSGALTSGVHTFPAVLQSSGLYSLSSVVTVPSSSLGTKTYTCNVDHKPSNTKVDKRVESKYGPPCPPCPAPEFLGGPSVFLFPPKPKDTLYITREPEVTCVVVDVSQEDPEVQFNWYVDGVEVHNAKTKPREEQFNSTYRVVSVLTVLHQDWLNGKEYKCKVSNKGLPSSIEKTISKAKGQPREPQVYTLPPSQEEMTKNQVSLTCLVKGFYPSDIAVEWESNGQPENNYKTTPPVLDSDGSFFLYSRLTVDKSRWQEGNVFSCSVMHEALHNHYTQKSLSLSLG
chain 2: DIVMTQTPLSLSVTPGQPASISCKSSQSLLHSDAKTYLNWLLQKPGQPPERLIYLVSELDSGVPDRFSGSGSGTDFTLKISRVEAEDVGVYYCWQGTHFPYTFGGGTKVEIKGGGSGGGGQVQLVQSGAEVKKPGASVKVSCKASGYSFTSYWMNWVRQAPGQGLEWIGVIHPSDSETWLDQKFKDRVTITVDKSTSTAYMELSSLRSEDTAVYYCAREHYGTSPFAYWGQGTLVTVSSLGGGSGRTVAAPSVFIFPPSDEQLKSGTASVVCLLNNFYPREAKVQWKVDNALQSGNSQESVTEQDSKDSTYSLSSTLTLSKADYEKHKVYACEVTHQGLSSPVTKSFNRGEC
On to B1, for which the IC50 in experiment [1] was 1180 nM; in experiment [2], 1550 nM; in experiment [5], 3.13 µM. For the same molecule, the concentration giving a half-maximal response (EC50) in experiment [3] stood at 898 nM; in [4], 2230 nM.

B2: DART A (bispecific antibody, human IgG4 S228P)
chain 1: DIVMTQTPLSLSVTPGQPASISCKSSQSLLHSDAKTYLNWLLQKPGQPPERLIYLVSELDSGVPDRFSGSGSGTDFTLKISRVEAEDVGVYYCWQGTHFPYTFGGGTKVEIKGGGSGGGGQVQLVQSGAEVKKPGASVKVSCKASGYSFTSYWMNWVRQAPGQGLEWIGVIHPSDSETWLDQKFKDRVTITVDKSTSTAYMELSSLRSEDTAVYYCAREHYGTSPFAYWGQGTLVTVSSGGCGGGEVAACEKEVAALEKEVAALEKEVAALEKESKYGPPCPPCPAPEFLGGPSVFLFPPKPKDTLYITREPEVTCVVVDVSQEDPEVQFNWYVDGVEVHNAKTKPREEQFNSTYRVVSVLTVLHQDWLNGKEYKCKVSNKGLPSSIEKTISKAKGQPREPQVYTLPPSQEEMTKNQVSLTCLVKGFYPSDIAVEWESNGQPENNYKTTPPVLDSDGSFFLYSRLTVDKSRWQEGNVFSCSVMHEALHNHYTQKSLSLSLG
chain 2: EIVLTQSPATLSLSPGERATLSCRASESVDNYGMSFMNWFQQKPGQPPKLLIHAASNQGSGVPSRFSGSGSGTDFTLTISSLEPEDFAVYFCQQSKEVPYTFGGGTKVEIKGGGSGGGGQVQLVQSGAEVKKPGASVKVSCKASGYTFTNYGMNWVRQAPGQGLEWMGWINTYTGESTYADDFEGRFVFSMDTSASTAYLQISSLKAEDTAVYYCARESLYDYYSMDYWGQGTTVTVSSGGCGGGKVAACKEKVAALKEKVAALKEKVAALKE
Take B2: the half-maximal effective concentration (EC50) in experiment [6] worked out at 840 nM; in experiment [10], 1930 nM. For the same molecule, the IC50 in experiment [7] stood at 1630 nM; in experiment [8], 1380 nM; in experiment [9], 964 nM.

B3: DART B (bispecific antibody, human IgG4 S228P)
chain 1: B2 chain 1 with A34G
chain 2: B2 chain 2
Consider B3, for which the results for the concentration for half-maximal inhibition (IC50) in [11], in experiment [12] and in [15] were 1150 nM, 2120 nM and 408 nM, respectively. Moreover, the EC50 in experiment [13] came out at 1080 nM; in experiment [14] it was 1760 nM. Also, the EC90 in [14] amounted to 12.3 µM.

The IC50 is the concentration needed to halve the response being measured. Lower therefore signals greater potency. The EC50 is the midpoint of the concentration-response curve. Lower therefore signals higher potency in that assay. In general, EC90 refers to the concentration at which the effect reaches the 90% level. A low value points to an effect from little substance.
